IntAct's records for PubMed 20176808

B1: Inactive serine/threonine-protein kinase TEX14 (Mus musculus), Q7M6U3 (parent)
chain: MSRGAPFPVPCPVLLGTFTDDSLEAQLHEYAKQGNCVKLKKILKKGVCVDAVNTQGQSALFVAALLGHVKLVDVLVDYGSDPNHRCFDGSTPVHAAAFSGNQWILSKLLTAGGDLRLHDEKGRNPQAWALTAGKDRSTQMVEFMQRCTSHMKAIIQGFSYDLLKKIDSPQRLIGSPPWFGSLIQGSPNSSPNRQLKPGIISAQNIYSFGFGKFYLTSGMQLTYPGSLPVIGEKEVVQADDEPTFSFFSGPYMVMTNLVWNRSRVTVKELNLPTRPHCSRLRLADLLIAEQEHSSNLRHPNLLQLMAVCLSRDLEKIRLVYERITVGTLFSVLHERRSQFPVLHMEVIVHLLLQVADALIYLHSRGFIHRSLSSYAVHIVSAGEARLTNLEYLTESQDSGAHRNVTRMPLPTQLYNWAAPEVVLQKAATVKSDIYSFSVIIQEILTDSIPWNGLDGSLVKETIALGNYLEADVRLPEPYYDIVKSGIHAKQKNRTMNLQDIRYILKNDLKEFIGAQKTQPTESPRGQSYEPHPDVNICLGLTSEYQKDPPDLDIKELKEMGSQPHSPTDHSFLTVKPTLAPQTLDSSLSAQKPDNANVPSPPAACLAEEVRSPTASQDSLCSFEINEIYSGCLTLGTDKEEECLGTAASPEGDRPNQGDELPSLEEELDKMERELHCFCEEDKSISEVDTDLLFEDDDWQSDSLGSLNLPEPTREAKGKTSSWSKTDEYVSKCVLNLKISQVMMQQSAEWLRKLEQEVEELEWAQKELDSQCSSLRDASLKFANAKFQPAVGPPSLAYLPPVMQLPGLKQPENGGTWLTLARSPGNEREFQEGHFSKKPEKLSACGWKPFTQVSEESRGDCSELNNQLPTLRGPGKQSTGEQLPSTQEARESLEKNTNQNSRSMASVSSEIYATKSRNNEDNGEAHLKWRLAVKEMAEKAVSGQLLLPPWNPQSSAPFESKVENESTPLPRPPIRGPESTEWQHILEYQRENDEPKGNTKFGKMDNSDCDKNKHSRWTGLQRFTGIRYPFFRNHEQPEQNEASQASCDTSVGTEKFYSTSSPIGDDFERFQDSFAQRQGYVEENFQIREIFEKNAEILTKPQFQAIQCAEDKQDETLGETPKELKEKNTSLTDIQDLSSITYDQDGYFKETSYKTPKLKHAPTSASTPLSPESISSAASHYEDCLENTTFHVKRGSTFCWNGQEAMRTLSAKFTTVRERAKSLESLLASSKSLPAKLTDSKRLCMLSETGSSNVSAAFVTSTHATKRKSLPRELAEATSQQHLDELPPPAQELLDEIEQLKQQQVSSLASHENTARDLSVTNKDKKHLEEQETNSSKDSSFLSSREIQDLEDTERAHSSLDEDLERFLQSPEENTALLDPTKGSTREKKNKDQDVVEQKRKKKESIKPERRESDSSLGTLEEDELKPCFWKRLGWSEPSRIIVLDQSDLSD
partner: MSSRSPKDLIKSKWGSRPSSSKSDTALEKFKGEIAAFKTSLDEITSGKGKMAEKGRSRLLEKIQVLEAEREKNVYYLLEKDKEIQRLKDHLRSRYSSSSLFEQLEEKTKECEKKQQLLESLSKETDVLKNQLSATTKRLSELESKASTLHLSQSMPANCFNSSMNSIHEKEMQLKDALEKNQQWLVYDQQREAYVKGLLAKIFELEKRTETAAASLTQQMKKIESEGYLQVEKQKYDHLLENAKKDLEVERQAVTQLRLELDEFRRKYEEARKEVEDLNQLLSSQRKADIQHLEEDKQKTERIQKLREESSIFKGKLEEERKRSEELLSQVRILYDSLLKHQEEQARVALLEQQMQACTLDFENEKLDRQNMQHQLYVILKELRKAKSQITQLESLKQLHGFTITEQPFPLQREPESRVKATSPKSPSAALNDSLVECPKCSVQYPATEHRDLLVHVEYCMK

Variants of: B1
Conditions: with cep55_mouse Cep55, Q8BT07

Row | Variant | effect of a mutation on the interaction
1 | P792A | disrupting interaction
2 | P793A | decreasing interaction
3 | Y797A | disrupting interaction
